This is an account of results in patent publication US20240100176A1 (Eli Lilly, published 2024).

Test [1] concerns the target T1, hexahistidine-tagged human IL-4Rα extracellular domain (human, UniProt P24394 26-232).
T1 construct: In the MSD assay the plate coat is the His-tagged ECD; also called human IL-4Rα ECD; Wild type receptor; not shown: hexahistidine tag
T1 sequence: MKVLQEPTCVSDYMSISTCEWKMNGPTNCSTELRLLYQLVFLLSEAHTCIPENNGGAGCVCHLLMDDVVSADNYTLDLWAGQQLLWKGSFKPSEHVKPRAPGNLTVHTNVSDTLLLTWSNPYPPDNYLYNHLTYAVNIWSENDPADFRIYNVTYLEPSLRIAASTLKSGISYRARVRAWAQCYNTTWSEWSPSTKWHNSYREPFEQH
In words: competition MSD ELISA (solution equilibrium, 37 °C), apparent KD, single experiment. On the procedure:
(§1) Example 3a. […] A 96-well multi-array plate (Meso Scale Diagnostics, Cat. #L15XA-3) was coated at 4° C. overnight with 0.5 μg/mL hexahistidine-tagged human or cynomolgus monkey IL-4Rα ECD in phosphate buffered saline (PBS). Following coating, plates were washed 10 times with 200 μL PBST (PBS with 0.05% Tween® 20) and blocked with 300 μL/well of PBS casein blocking buffer (Pierce, Cat. #37528) at 37° C. for 1 hour. Plates were then washed 10 times as above, and 50 μL of the preincubated antibody:IL-4Rα dilution series was transferred to the wells and incubated at 37° C. with 300 rpm shaking for […]. Plates were washed 10 times with PBST, 50 μL of 1 μg/mL anti-human antibody sulfo-tag 20 (Meso Scale Diagnostics, Cat. #R32AJ-1) was added to the plates for the assay of Table 7a, and anti-Human NHP Kappa Light chain SULFO-TAG 20 (Meso Scale Diagnostics, Cat #D20TF-6) was added to the plates for the assay of Table 7b, and plates were incubated at 37° C. with 300 rpm shaking for 30 minutes. Plates were washed 10 times with PBST, 150 μL/well of 1× Read Buffer T was added to the wells and analyzed on a SECTOR® Imager 6000 (Meso Scale Diagnostics) 15 min after buffer addition. The apparent KD is determined by fitting a sigmoidal curve to the electrochemiluminescence (ECL) response vs. log (soluble IL-4Rα concentration) using GraphPad Prism 9. Data is graphed with normalized ECL values.
Background: An ELISA detects its analyte on a solid surface through an enzyme-linked reagent.

Test [2] deals with T2, hexahistidine-tagged cynomolgus monkey IL-4Rα extracellular domain (cynomolgus monkey, UniProt P24394 26-231 (human entry)).
T2 construct: also called cynomolgus monkey IL-4Rα ECD; not shown: hexahistidine tag
T2 chain: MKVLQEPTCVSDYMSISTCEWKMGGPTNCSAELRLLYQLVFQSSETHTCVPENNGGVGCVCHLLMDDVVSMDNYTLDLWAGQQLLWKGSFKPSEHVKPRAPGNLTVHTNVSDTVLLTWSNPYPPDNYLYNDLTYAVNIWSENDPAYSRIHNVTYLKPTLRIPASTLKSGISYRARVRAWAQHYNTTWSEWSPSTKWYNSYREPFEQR
The description is as above. How it is done:
as §1

The target in test [3] is T3, human IL-4Rα on cells (human PBMC B cells and CD4+ T cells, Daudi cells, HEK-Blue IL-4/IL-13 cells, myeloid … (human, UniProt P24394 26-825)).
T3 sequence: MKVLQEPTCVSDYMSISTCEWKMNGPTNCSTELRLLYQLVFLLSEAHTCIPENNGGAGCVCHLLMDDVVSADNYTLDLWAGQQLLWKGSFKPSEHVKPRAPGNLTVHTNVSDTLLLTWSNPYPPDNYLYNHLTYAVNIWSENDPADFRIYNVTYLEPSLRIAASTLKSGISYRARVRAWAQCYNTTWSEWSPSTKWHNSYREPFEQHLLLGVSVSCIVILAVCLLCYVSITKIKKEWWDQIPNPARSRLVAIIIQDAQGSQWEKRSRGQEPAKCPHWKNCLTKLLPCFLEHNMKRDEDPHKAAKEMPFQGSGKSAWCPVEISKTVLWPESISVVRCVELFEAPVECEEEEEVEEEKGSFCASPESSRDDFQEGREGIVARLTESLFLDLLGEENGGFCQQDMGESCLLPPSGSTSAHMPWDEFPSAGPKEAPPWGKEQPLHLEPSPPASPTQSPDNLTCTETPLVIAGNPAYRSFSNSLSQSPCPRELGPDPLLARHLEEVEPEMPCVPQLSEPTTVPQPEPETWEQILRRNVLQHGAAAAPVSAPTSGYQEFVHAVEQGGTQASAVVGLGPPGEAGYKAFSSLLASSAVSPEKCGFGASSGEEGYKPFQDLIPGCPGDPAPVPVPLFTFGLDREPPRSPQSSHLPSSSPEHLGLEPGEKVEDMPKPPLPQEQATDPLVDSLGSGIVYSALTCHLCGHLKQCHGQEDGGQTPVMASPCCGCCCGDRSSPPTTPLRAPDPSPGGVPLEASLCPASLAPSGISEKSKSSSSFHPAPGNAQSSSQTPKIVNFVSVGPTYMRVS
In words: flow cytometry on human PBMCs, B cells, Alexa Fluor 647 labelled antibody. How it is done: Example 3b. Binding to B cells and T cells: Binding of the exemplified anti-human IL-4Rα antibodies to B cells and T cells was tested in a Fluorescence Activated Cell Sorting (FACS) assay. […] Freshly isolated cells PBMCs were resuspended at 2×10⁶ cells/mL and allowed to rest for 15 minutes at room temperature, then plated at 100 μL/well into a round bottom 96-well plate (COSTAR®) and washed with FACS buffer (PBS containing 2% fetal bovine serum from Corning®). Exemplified anti-human IL-4Rα antibodies and the respective control IgG antibodies conjugated to Alexa Fluor® 647 according to manufacturer's protocol (Thermo Fisher Scientific) were added to the wells at 66.67 nM and diluted 4-fold in duplicate. Equivalent volume of 2× antibody cocktail containing: Human TruStain FcX™. FITC anti-human CD3 Antibody, Alexa Fluor® 700 anti-human CD4 Antibody (all from Biolegend®) and CD20 Monoclonal Antibody (2H7), PerCP-Cyanine5.5 (Thermo Fisher Scientific) was then added to the wells. Cells were incubated at 4° C. for 30 minutes, washed twice with FACS buffer and resuspended in a final volume of 100 μL FACS buffer. Viability dye, Sytox™ blue (Thermo Fisher Scientific), was added and the samples were analyzed via a flow cytometer (LSRFortessa™ X-20; BD BIOSCIENCES). Data analysis was performed using FlowJo software and statistical analysis was performed using GraphPad Prism 9. […]
For orientation: Flow cytometry measures light scatter and fluorescence of single cells or particles in a stream.

Test [4] deals with T3, human IL-4Rα on cells (human PBMC B …). In words: cell-based or functional assay.
For test [5], the target named is T4, hexahistidine tagged human IL-4Rα ECD containing a C182L mutation (human, UniProt P24394 26-232).
T4 construct: Stated for the Ab9 Fab crystal; also called IL-4Rα ECD (crystallisation construct); not shown: hexahistidine tag
In words: X-ray co-crystal structure.

B1: anti-human IL-4Rα antibody Ab4 (antibody, human IgG4 S228P, kappa)
heavy: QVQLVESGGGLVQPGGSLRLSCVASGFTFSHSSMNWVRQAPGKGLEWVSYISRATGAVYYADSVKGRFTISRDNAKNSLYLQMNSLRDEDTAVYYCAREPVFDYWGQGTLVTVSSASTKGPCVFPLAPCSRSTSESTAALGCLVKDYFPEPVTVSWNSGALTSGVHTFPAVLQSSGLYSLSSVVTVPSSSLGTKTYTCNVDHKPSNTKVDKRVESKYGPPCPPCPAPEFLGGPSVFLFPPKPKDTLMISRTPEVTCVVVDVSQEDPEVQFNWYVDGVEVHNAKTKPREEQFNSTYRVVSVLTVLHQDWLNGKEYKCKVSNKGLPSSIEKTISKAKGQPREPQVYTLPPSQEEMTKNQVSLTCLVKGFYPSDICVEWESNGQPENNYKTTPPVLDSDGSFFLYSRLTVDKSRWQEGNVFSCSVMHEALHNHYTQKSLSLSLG
light: DIQMTQSPSAMSASVGDRVTITCRASQDISNYLAWFQQKPGKVPTRLIYAASSLQSGVPSRFSGSGSGTEFTLTISSLQPEDFATYYCLQWSSYPRTFGQGTKVEIKRTVAAPSVFIFPPSDEQLKSGTASVVCLLNNFYPREAKVQWKVDNALQSGNSQESVTEQDSKDSTYSLSSTLTLSKADYEKHKVYACEVTHQGLSSPVTKSFNRGEC
On to B1, for which the Kd came out at 24.6 pM in test [1] and 31.5 pM in test [2].

B2: effector null anti-human IL-4Rα antibody Ab8 (antibody, human IgG1, kappa, L234A L235A)
heavy: QVQLVESGGGLVQPGGSLRLSCVASGFTFSHSSMNWVRQAPGKGLEWVSYISRATGAVYYADSVKGRFTISRDNAKNSLYLQMNSLRDEDTAVYYCAREPVFDYWGQGTLVTVSSASTKGPCVFPLAPSSKSTSGGTAALGCLVKDYFPEPVTVSWNSGALTSGVHTFPAVLQSSGLYSLSSVVTVPSSSLGTQTYICNVNHKPSNTKVDKRVEPKSCDKTHTCPPCPAPEAAGGPSVFLFPPKPKDTLMISRTPEVTCVVVDVSHEDPEVKFNWYVDGVEVHNAKTKPREEQYNSTYRVVSVLTVLHQDWLNGKEYKCKVSNKALAAPIEKTISKAKGQPREPQVYTLPPSREEMTKNQVSLTCLVKGFYPSDICVEWESNGQPENNYKTTPPVLDSDGSFFLYSKLTVDKSRWQQGNVFSCSVMHEALHNHYTQKSLSLSPGK
light: DIQMTQSPSAMSASVGDRVTITCRASQDISNYLAWFQQKPGKVPTRLIYAASSLQSGVPSRFSGSGSGTEFTLTISSLQPEDFATYYCLQWSSYPRTFGQGTKVEIKRTVAAPSVFIFPPSDEQLKSGTASVVCLLNNFYPREAKVQWKVDNALQSGNSQESVTEQDSKDSTYSLSSTLTLSKADYEKHKVYACEVTHQGLSSPVTKSFNRGEC
notes: Effector null backbone
The molecule B2 gave an EC50 in test [3] of 1070 pM.

B3: anti-human IL-4Rα antibody Ab9 (antibody, human IgG4 S228P, kappa, V domains shown)
VH: QVQLVESGGGLVQPGGSLRLSCAASGFTFSHSSMNWVRQAPGKGLEWVSYISRATGAVYYADSVKGRFTISRDNAKNSLYLQMNSLRDEDTAVYYCAREPVFDYWGQGTLVTVSS
VL: DIQMTQSPSAMSASVGDRVTITCRASQGISNYLAWFQQKPGKVPTRLIYAASSLQSGVPSRFSGSGSGTEFTLTISSLQPEDFATYYCLQWSSYPRTFGQGTKVEIKR
B3: in test [4], the “IL-4 IC50 (nM): inhibition of IL-4 induced SEAP activity in HEK-Blue IL-4R and IL-13R expressing cells” value came out at 0.03 nM; the “IL-13 IC50 (nM): inhibition of IL-13 induced SEAP activity in HEK-Blue IL-4R and IL-13R expressing cells” value was 0.24 nM.

B4: anti-human IL-4Rα antibody Ab10 (antibody, human IgG4 S228P, kappa, F234A L235A, V domains shown)
VH: QVQLVESGGGLVQPGGSLRLSCAASGFTFSISSMNWVRQAPGKGLEWVSYISRATGAIYYADSVKGRFTISRNNAKNSLYLQMNSLRDEDTAVYYCAREPVFDYWGQGTLVTVSS
VL: DIQMTQSPSAMSASVGDRVTITCRASQGISNYLAWFQQKPGKVPTRLIYAASSLQSGVPSRFSGSGSGTEFTLTISSLQPEDFATYYCLQHNSYPRTFGQGTKVEIKR
Consider B4, for which, in test [4], the “IL-4 IC50 (nM): inhibition of IL-4 induced SEAP activity in HEK-Blue IL-4R and IL-13R expressing cells” value is 3.45 nM; the “IL-13 IC50 (nM): inhibition of IL-13 induced SEAP activity in HEK-Blue IL-4R and IL-13R expressing cells” value was over 35 nM.

B5: Ab9 Fab (hexahistidine tagged IgG1 heavy chain truncated after CH1, Crystal Kappa light chain) (Fab, V domains shown)
VH: QVQLVESGGGLVQPGGSLRLSCAASGFTFSHSSMNWVRQAPGKGLEWVSYISRATGAVYYADSVKGRFTISRDNAKNSLYLQMNSLRDEDTAVYYCAREPVFDYWGQGTLVTVSS
VL: DIQMTQSPSAMSASVGDRVTITCRASQGISNYLAWFQQKPGKVPTRLIYAASSLQSGVPSRFSGSGSGTEFTLTISSLQPEDFATYYCLQWSSYPRTFGQGTKVEIK
notes: Construct for co-crystallisation; also called Fab portion of Ab9; Ab9 variant
B5: the binding result in test [5] is given as “binds”.

B6: Ab1 Fab (Crystal Kappa design) (Fab, V domains shown)
VH: QVQLVESGGGLVQPGGSLRLSCVASGFTFSHSSMNWVRQAPGKGLEWVSYISRATGAVYYADSVKGRFTISRDNAKNSLYLQMNSLRDEDTAVYYCAREPVFDYWGQGTLVTVSS
VL: DIQMTQSPSAMSASVGDRVTITCRASQDISNYLAWFQQKPGKVPTRLIYAASSLQSGVPSRFSGSGSGTEFTLTISSLQPEDFATYYCLQWSSYPRTFGQGTKVEIK
notes: Construct for co-crystallisation; also called Fab of the Ab1; anti-human IL-4Rα Ab1 Fab
B6: the binding result in test [5] was “binds”.

As a reminder, the EC50 is the concentration that produces a half-maximal response.
